T1: HPV6 E6 protein (HPV6, UniProt P06462 1-150)
T1 construct: Expressed in yeast from a pPC97 expression vector; also called E6 of HPV6
T1 sequence: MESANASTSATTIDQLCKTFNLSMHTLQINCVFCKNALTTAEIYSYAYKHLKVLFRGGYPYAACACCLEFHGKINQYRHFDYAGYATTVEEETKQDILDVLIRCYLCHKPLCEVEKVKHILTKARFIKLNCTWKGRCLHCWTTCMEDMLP

T2: HPV11 E6 protein (HPV11, UniProt P04019 1-150)
T2 construct: Expressed in yeast from a pPC97 expression vector; also called E6 of HPV11
T2 sequence: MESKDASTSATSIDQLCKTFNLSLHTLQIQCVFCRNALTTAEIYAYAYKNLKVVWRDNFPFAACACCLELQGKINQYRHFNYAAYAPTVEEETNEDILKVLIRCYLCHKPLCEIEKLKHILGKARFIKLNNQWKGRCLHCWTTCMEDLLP


Key:
HPV16 E6 oncoprotein [1] = target: T3, HPV16 E6 oncoprotein (HPV16, UniProt P03126 1-158); assay: mutational studies (two-hybrid; assay not further described)
T3 construct: Expressed in yeast from pPC97; In the functional assays it is the endogenous E6 of HPV16-positive cells; also called HPV16 E6 protein; HPV-E6

HPV6 E6 protein = target: T1, HPV6 E6 protein; assay: yeast two-hybrid
HPV11 E6 protein = target: T2, HPV11 E6 protein; assay: yeast two-hybrid
HPV18 E6 protein = target: T4, HPV18 E6 protein (HPV18, UniProt P06463 1-158); assay: yeast two-hybrid
T4 construct: Expressed in yeast from a pPC97 expression vector; also called E6 of HPV18

HPV16 E6 oncoprotein [2] = target: T3, HPV16 E6 oncoprotein; assay: yeast two-hybrid screening

T3 sequence (P03126 whole entry): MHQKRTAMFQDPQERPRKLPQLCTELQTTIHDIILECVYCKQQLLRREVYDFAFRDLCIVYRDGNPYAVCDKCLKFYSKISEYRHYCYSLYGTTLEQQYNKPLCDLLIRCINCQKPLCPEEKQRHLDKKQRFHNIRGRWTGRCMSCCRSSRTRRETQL
T4 sequence (P06463 whole entry): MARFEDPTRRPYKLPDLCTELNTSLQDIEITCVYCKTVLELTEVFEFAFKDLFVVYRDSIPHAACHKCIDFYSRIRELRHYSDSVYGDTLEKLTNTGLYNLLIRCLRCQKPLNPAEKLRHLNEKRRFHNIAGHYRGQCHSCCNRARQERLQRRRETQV

Binder | binding result (HPV16 E6 oncoprotein [1]) | binding result (HPV6 E6 protein) | binding result (HPV11 E6 protein) | binding result (HPV18 E6 protein) | binding result (HPV16 E6 oncoprotein [2])
KEKEEYNSNSSSIASIGLI (also called b2) [pep11**m] | no binding | – | – | – | –
PFLLGCFCLCCWIECQIGSYGP (Linear peptide from a randomized 20-mer library; Expressed in yeast as a GAL4AD fusion (vector pADpep); also called a2) [E6 pep5] | – | no binding | no binding | no binding | binds
EFGSGCSCIVCIGLI (Expressed in yeast as a GAL4AD fusion (pADpep), in the mammalian two-hybrid assay as a VP16AD fusion (pACT2), and in the p53 reporter assay as an hrGFP fusion; also called a3) [E6 pep 11] | – | no binding | no binding | no binding | binds
KGSLNCSCLVCWLQMFLGEFGP (Linear peptide from a randomized 20-mer library; Expressed in yeast as a GAL4AD fusion (vector pADpep); also called a1) [E6 pep 1] | – | no binding | no binding | no binding | binds

Source: US20110201560A1 (DKFZ DEUTSCHES KREBSFORSCHUNGSZENTRUM STIFTUNG DES …, published 2011)
